The values that follow come from publication PMC7296346, “Dynamic Palmitoylation of the Sodium-Calcium Exchanger Modulates Its Structure, Affinity for Lipid-Ordered Domains, and Inhibition by XIP” (Cell Reports, 2020).

In general, stoichiometry N refers to a count of units in the complex or per binding partner.

The target in series [1] is C739A NCX1, full length, tetracycline-inducible in FT-293 cells (canine). The experiment in a line: cross-linking; FT-293 cells expressing tetracycline-inducible NCX1 treated with 0.1 mM BMH for 5 min at 37°C in 10 mM Tris-HCl pH 7.2, 150 mM NaCl; lysed in 1% Triton X-100; SDS-PAGE.
Series [2] deals with the molecule itself. The description is as above.

As to “C739A NCX1, full length, tetracycline-inducible in FT-293 cells (natural protein)”, the stoichiometry N in series [1] stood at 2.

B1: wild-type (WT) NCX1, full length, tetracycline-inducible in FT-293 cells (natural protein, canine, UniProt P23685 33-970, looked up)
chain: ETEMEGEGNETGECTGSYYCKKGVILPIWEPQDPSFGDKIARATVYFVAMVYMFLGVSIIADRFMSSIEVITSQEKEITIKKPNGETTKTTVRIWNETVSNLTLMALGSSAPEILLSVIEVCGHNFTAGDLGPSTIVGSAAFNMFIIIALCVYVVPDGETRKIKHLRVFFVTAAWSIFAYTWLYIILSVISPGVVEVWEGLLTFFFFPICVVFAWVADRRLLFYKYVYKRYRAGKQRGMIIEHEGDRPSSKTEIEMDGKVVNSHVDNFLDGALVLEVDERDQDDEEARREMARILKELKQKHPEKEIEQLIELANYQVLSQQQKSRAFYRIQATRLMTGAGNILKRHAADQARKAVSMHEVNTEVAENDPVSKIFFEQGTYQCLENCGTVALTIIRRGGDLTNTVFVDFRTEDGTANAGSDYEFTEGTVVFKPGETQKEIRVGIIDDDIFEEDENFLVHLSNVKVSSEASEDGILEANHVSALACLGSPSTATVTIFDDDHAGIFTFEEPVTHVSESIGIMEVKVLRTSGARGNVIVPYKTIEGTARGGGEDFEDTCGELEFQNDEIVKTISVKVIDDEEYEKNKTFFLEIGEPRLVEMSEKKALLLNELGGFTITGKYLYGQPVFRKVHAREHPIPSTVITIAEEYDDKQPLTSKEEEERRIAEMGRPILGEHTKLEVIIEESYEFKSTVDKLIKKTNLALVVGTNSWREQFIEAITVSAGEDDDDDECGEEKLPSCFDYVMHFLTVFWKVLFAFVPPTEYWNGWACFIVSILMIGILTAFIGDLASHFGCTIGLKDSVTAVVFVALGTSVPDTFASKVAATQDQYADASIGNVTGSNAVNVFLGIGVAWSIAAIYHAANGEQFKVSPGTLAFSVTLFTIFAFINVGVLLYRRRPEIGGELGGPRTAKLLTSCLFVLLWLLYIFFSSLEAYCHIKGF
modifications: palmitoylated at cysteine 739
notes: Na-Ca exchanger 1, canine, NCX1.1 cDNA; Forms a dimer (cross-linking); The cell line is from Reilly et al., 2015; source: in cells or in lysate
Take B1: the “stoichiometry N” value in series [2] stood at 2.
